{"source": "patent US7601489B2", "about": "“Manganese ion regulation of reverse transcriptase activity and methods of modulating same” (The Johns Hopkins University, priority 2002, dated 2009)", "proteins": {"B1": {"name": "wild-type Ty1 RT (Saccharomyces cerevisiae S288C) (protein)", "chain": "MESQQLSQHSHISHGSACASVTSKEVHTNQDPLDVSASKTEECEKASTKANSQQTTTPASSAVPENPHHASPQPASVPPPQNGPYPQQCMMTQNQANPSGWSFYGHPSMIPYTPYQMSPMYFPPGPQSQFPQYPSSVGTPLSTPSPESGNTFTDSSSADSDMTSTKKYVRPPPMLTSPNDFPNWVKTYIKFLQNSNLGGIIPTVNGKPVRQITDDELTFLYNTFQIFAPSQFLPTWVKDILSVDYTDIMKILSKSIEKMQSDTQEANDIVTLANLQYNGSTPADAFETKVTNIIDRLNNNGIHINNKVACQLIMRGLSGEYKFLRYTRHRHLNMTVAELFLDIHAIYEEQQGSRNSKPNYRRNLSDEKNDSRSYTNTTKPKVIARNPQKTNNSKSKTARAHNVSTSNNSPSTDNDSISKSTTEPIQLNNKHDLHLGQELTESTVNHTNHSDDELPGHLLLDSGASRTLIRSAHHIHSASSNPDINVVDAQKRNIPINAIGDLQFHFQDNTKTSIKVLHTPNIAYDLLSLNELAAVDITACFTKNVLERSDGTVLAPIVQYGDFYWVSKRYLLPSNISVPTINNVHTSESTRKYPYPFIHRMLAHANAQTIRYSLKNNTITYFNESDVDWSSAIDYQCPDCLIGKSTKHRHIKGSRLKYQNSYEPFQYLHTDIFGPVHNLPKSAPSYFISFTDETTKFRWVYPLHDRREDSILDVFTTILAFIKNQFQASVLVIQMDRGSEYTNRTLHKFLEKNGITPCYTTTADSRAHGVAERLNRTLLDDCRTQLQCSGLPNHLWFSAIEFSTIVRNSLASPKSKKSARQHAGLAGLDISTLLPFGQPVIVNDHNPNSKIHPRGIPGYALHPSRNSYGYIIYLPSLKKTVDTTNYVILQGKESRLDQFNYDALTFDEDLNRLTASYQSFIASNEIQESNDLNIESDHDFQSDIELHPEQPRNVLSKAVSPTDSTPPSTHTEDSKRVSKTNIRAPREVDPNISESNILPSKKRSSTPQISNIESTGSGGMHKLNVPLLAPMSQSNTHESSHASKSKDFRHSDSYSENETNHTNVPISSTGGTNNKTVPQISDQETEKRIIHRSPSIDASPPENNSSHNIVPIKTPTTVSEQNTEESIIADLPLPDLPPESPTEFPDPFKELPPINSHQTNSSLGGIGDSNAYTTINSKKRSLEDNETEIKVSRDTWNTKNMRSLEPPRSKKRIHLIAAVKAVKSIKPIRTTLRYDEAITYNKDIKEKEKYIEAYHKEVNQLLKMKTWDTDEYYDRKEIDPKRVINSMFIFNKKRDGTHKARFVARGDIQHPDTYDTGMQSNTVHHYALMTSLSLALDNNYYITQLDISSAYLYADIKEELYIRPPPHLGMNDKLIRLKKSHYGLKQSGANWYETIKSYLIKQCGMEEVRGWSCVFKNSQVTICLFVDDMILFSKDLNANKKIITTLKKQYDTKIINLGESDNEIQYDILGLEIKYQRGKYMKLGMENSLTEKIPKLNVPLNPKGRKLSAPGQPGLYIDQDELEIDEDEYKEKVHEMQKLIGLASYVGYKFRFDLLYYINTLAQHILFPSRQVLDMTYELIQFMWDTRDKQLIWHKNKPTEPDNKLVAISDASYGNQPYYKSQIGNIFLLNGKVIGGKSTKASLTCTSTTEAEIHAISESVPLLNNLSYLIQELNKKPIIKGLLTDSRSTISIIKSTNEEKFRNRFFGTKAMRLRDEVSGNNLYVYYIETKKNIADVMTKPLPIKTFKLLTNKWIH"}, "B2": {"name": "D211N Ty1 RT (Saccharomyces cerevisiae S288C; D1428N) (protein)", "chain": "AVKAVKSIKPIRTTLRYDEAITYNKDIKEKEKYIEAYHKEVNQLLKMKTWDTDEYYDRKEIDPKRVINSMFIFNKKRDGTHKARFVARGDIQHPDTYDTGMQSNTVHHYALMTSLSLALDNNYYITQLDISSAYLYADIKEELYIRPPPHLGMNDKLIRLKKSHYGLKQSGANWYETIKSYLIKQCGMEEVRGWSCVFKNSQVTICLFVDNMILFSKDLNANKKIITTLKKQYDTKIINLGESDNEIQYDILGLEIKYQRGKYMKLGMENSLTEKIPKLNVPLNPKGRKLSAPGQPGLYIDQDELEIDEDEYKEKVHEMQKLIGLASYVGYKFRFDLLYYINTLAQHILFPSRQVLDMTYELIQFMWDTRDKQLIWHKNKPTEPDNKLVAISDASYGNQPYYKSQIGNIFLLNGKVIGGKSTKASLTCTSTTEAEIHAISESVPLLNNLSYLIQELNKKPIIKGLLTDSRSTISIIKSTNEEKFRNRFFGTKAMRLRDEVSGNNLYVYYIETKKNIADVMTKPLPIKTFKLLTNKWIH"}}, "substrate": "[Mg+2]", "assay": "purified protein, by the assay type", "conditions": "fit to Hill equation"}
{"protein": "B1", "values": [{"measurement": "kcat", "setting": "other: Wt. Ty1 RT", "value": "0.000447 ± 8.89e-05", "unit": "s⁻¹"}]}
{"protein": "B2", "values": [{"measurement": "kcat", "setting": "other: D211N Ty1 RT", "value": "0.000444 ± 7.78e-05", "unit": "s⁻¹"}]}
